These results are taken from patent US20250249076A1, “Composition Comprising a Combination of Lactoferrin and a Sulphated Polysaccharide” (Reckitt Benckiser Health Limited, priority 2022, published 2025).

Test [1] has as its system Lactobacillus jensenii 25258. Description: 96-well chequerboard growth assay (optical density over 48 hours), prebiotic effect. The note with it: bacteria exposed to the ingredient alone; FIG. 5. The class given is cell-based. The procedure:
A stock solution of 8 mg/mL bovine lactoferrin, was prepared by adding the appropriate amount of sterile MilliQ water to the weighted compound, followed by vortexing and filter-sterilizing. A stock solution of 2 mg/ml of each of the carrageenans (κ-, I-, λ-) was prepared by adding the appropriate amount of sterile MilliQ water to the weighted compound, incubated at 37° C. for 30 minutes, followed by vortexing until clear, and filter-sterilizing. […] The stock solution of lactoferrin was serially diluted in a broth-based media (appropriate for growth of the particular microorganism to be assayed) along the rows of the microtiter plate. The stock solution of carrageenan (κ-, I-, or λ-) was serially diluted in a broth-based media (appropriate for growth of the particular microorganism) along the columns of the microtiter plate. The final volume of media in each well was 0.1 mL. Each well containing lactoferrin and/or carrageenan (κ-, I-, or λ-) was inoculated with log-phase bacteria/yeast at a concentration of 5×10^5 colony forming units (CFU)/well. […] After addition of the relevant microorganism, plates were sealed with optical quality film, and incubated within the plate reader at the appropriate growth temperature for the microorganism being assayed. The optical density (OD) was recorded every 15 minutes for a period of 48 hours to evaluate the microorganism growth and biomass formation.

Test [2] relates to Lactobacilli at the level of the vaginal flora. The following applies: vaginal use; cited from earlier work.

B1: lactoferrin: iron-binding cationic glycoprotein belonging to the family of transferrins; bovine lactoferrin used in the Examples (protein, UniProt P24627 20-708, looked up)
Lactotransferrin: APRKNVRWCTISQPEWFKCRRWQWRMKKLGAPSITCVRRAFALECIRAIAEKKADAVTLDGGMVFEAGRDPYKLRPVAAEIYGTKESPQTHYYAVAVVKKGSNFQLDQLQGRKSCHTGLGRSAGWIIPMGILRPYLSWTESLEPLQGAVAKFFSASCVPCIDRQAYPNLCQLCKGEGENQCACSSREPYFGYSGAFKCLQDGAGDVAFVKETTVFENLPEKADRDQYELLCLNNSRAPVDAFKECHLAQVPSHAVVARSVDGKEDLIWKLLSKAQEKFGKNKSRSFQLFGSPPGQRDLLFKDSALGFLRIPSKVDSALYLGSRYLTTLKNLRETAEEVKARYTRVVWCAVGPEEQKKCQQWSQQSGQNVTCATASTTDDCIVLVLKGEADALNLDGGYIYTAGKCGLVPVLAENRKSSKHSSLDCVLRPTEGYLAVAVVKKANEGLTWNSLKDKKSCHTAVDRTAGWNIPMGLIVNQTGSCAFDEFFSQSCAPGADPKSRLCALCAGDDQGLDKCVPNSKEKYYGYTGAFRCLAEDVGDVAFVKNDTVWENTNGESTADWAKNLNREDFRLLCLDGTRKPVTEAQSCHLAVAPNHAVVSRSDRAAHVKQVLLHQQALFGKNGKNCPDKFCLFKSETKNLLFNDNTECLAKLGGRPTYEEYLGTEYVTAIANLKKCSTSPLLEACAFLTR
Regarding B1, in test [1], the “viability / phase of the bacterial growth cycle of L. jensenii 25258” value is listed as “enters the death phase”. Further, the “presence of Lactobacilli at the level of the vaginal flora” value in test [2] is reported as “able to increase the presence of Lactobacilli”.
